Reference: patent publication US20080050763A1 (INSTITUT PASTEUR, published 2008)

Molecular target: T1, IKKβ, endogenous, in Rat-1 and 5R cell extracts (rat (from the cell line Rat-1; not …, UniProt Q9QY78 1-757)
T1 construct: Endogenous protein of a cell extract; also called IKK-beta
T1 sequence (looked up): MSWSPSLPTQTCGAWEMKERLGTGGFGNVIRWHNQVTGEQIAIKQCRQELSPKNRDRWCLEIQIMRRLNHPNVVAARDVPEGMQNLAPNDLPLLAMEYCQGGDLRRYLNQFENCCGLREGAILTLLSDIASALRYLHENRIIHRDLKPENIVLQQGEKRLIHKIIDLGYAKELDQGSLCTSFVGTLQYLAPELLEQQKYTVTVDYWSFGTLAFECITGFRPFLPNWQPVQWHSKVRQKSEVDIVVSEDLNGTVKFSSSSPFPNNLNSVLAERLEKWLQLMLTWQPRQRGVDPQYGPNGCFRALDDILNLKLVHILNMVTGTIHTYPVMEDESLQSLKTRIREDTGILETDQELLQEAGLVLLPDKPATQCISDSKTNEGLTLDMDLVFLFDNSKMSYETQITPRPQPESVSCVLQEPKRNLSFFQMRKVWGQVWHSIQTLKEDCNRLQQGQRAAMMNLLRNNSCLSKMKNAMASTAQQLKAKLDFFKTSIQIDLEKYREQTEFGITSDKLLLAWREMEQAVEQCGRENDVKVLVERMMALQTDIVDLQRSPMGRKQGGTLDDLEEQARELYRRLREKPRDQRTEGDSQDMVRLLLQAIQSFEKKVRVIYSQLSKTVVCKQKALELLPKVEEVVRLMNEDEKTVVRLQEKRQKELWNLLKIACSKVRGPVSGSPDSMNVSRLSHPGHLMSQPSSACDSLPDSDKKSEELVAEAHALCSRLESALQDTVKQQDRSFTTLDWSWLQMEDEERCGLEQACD
Assay: glycerol gradient ultracentrifugation of cell extracts, co-migration
Method: Fractions (160 μl) were collected using the Piston Gradient Fractionator (Biocomp, Serlabo) and their absorbance at 280 nm was measured. To calibrate the gradient, standard proteins were applied to glycerol gradient and in parallel. The reproducibility of each glycerol gradient was also checked by measuring in each fraction the enzymatic activity of an endogenous marker, NDP kinase (110 kDa).

binding result: binds
B1: NEMO (NF-κB essential modulator), endogenous, in Rat-1 cell extracts (other, UniProt Q6TMG5 1-412, looked up)
chain: MSRHLWKNQLSEMVQPSGGPAEDQDMLGEESSLGKPAMLHLPSEQGTPETLQRCLEENQELRDAIRQSNQMLRERCEELLHFQVSQREEKEFLMCKFQEARKLVERLSLEKLDLRRQREQALEDLEHLKKCQQQMAEDKASVKAQVTSLLGELQESQSRLEAATKERQTLEGRIRAVSEQVRQLESEREVLQQQHSVQVDQLRMQNQSVEAALRMERQAASEEKRKLAQLQAAYHQLFQDYDSHIKSSKGMQLEDLRQQLQQAEEALVAKQELIDKLKEEAEQHKIVMETVPVLKAQADIYKADFQAERHAREKLVERKELLQEQLEQLQREFNKLKVGCHESARIEDMRKRHVETSQPPLLPAPAHHSFHLALSNQRRSPPEEPPDFCCPKCQYQAPDMDTLQIHVMECIE
notes: Endogenous protein of a cell extract; also called IKK gamma
